Measured values reported in the supplement of paper PMC9112550, “Optimization of the antimicrobial peptide Bac7 by deep mutational scanning” (BMC Biology, 2022).

These sequences were tested on Escherichia coli TOP10 (assay: shrunken log2 fold change of peptide-encoding DNA abundance (4.5 h post-induction vs induction); higher = less antimicrobial activity (less host growth inhibition)). Details: time post-induction: 4.5 h; library: site-saturation at positions 5, 18, 19, 20.
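Note: peptides expressed intracellularly from a pBAD plasmid library in pooled LB shake-flask culture, induced with 0.3% L-arabinose, DNA abundance read by NGS, three biological replicates, DESeq2 with apeglm shrinkage.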

| Sequence | shrunken log2 fold change |
| --- | --- |
| RRIRRRPPRLPRPRPRPDCPPRP | 0.4 |
| RRIRDRPPRLPRPRPRPRSKPRP | 0.401 |
| RRIRCRPPRLPRPRPRPHSTPRP | -0.698 |
| RRIRTRPPRLPRPRPRPIEPPRP | -0.0864 |
| RRIRIRPPRLPRPRPRPHVQPRP | -0.131 |
| RRIRRRPPRLPRPRPRPLPIPRP | 0.451 |
| RRIRRRPPRLPRPRPRPFVKPRP | -0.373 |
| RRIRYRPPRLPRPRPRPDQPPRP | 0.0375 |
| RRIRARPPRLPRPRPRPFKSPRP | -0.549 |
| RRIRGRPPRLPRPRPRPTQVPRP | 0.353 |
| RRIRSRPPRLPRPRPRPYLFPRP | -0.676 |
| RRIRQRPPRLPRPRPRPLTSPRP | -0.254 |
| RRIRVRPPRLPRPRPRPNLDPRP | -0.0165 |
| RRIRPRPPRLPRPRPRPWGGPRP | 0.702 |
| RRIRLRPPRLPRPRPRPQMSPRP | -0.111 |
| RRIRMRPPRLPRPRPRPKVSPRP | 0.0176 |
| RRIRWRPPRLPRPRPRPYKKPRP | -0.225 |
| RRIRYRPPRLPRPRPRPKIVPRP | -0.188 |
| RRIRHRPPRLPRPRPRPDQQPRP | 0.0104 |
| RRIRFRPPRLPRPRPRPCMRPRP | 0.0466 |
| RRIRVRPPRLPRPRPRPHFHPRP | 3.23 |
| RRIRMRPPRLPRPRPRPRTTPRP | 0.714 |
| RRIRLRPPRLPRPRPRPQCNPRP | -0.0192 |
| RRIRPRPPRLPRPRPRPWVDPRP | 0.064 |
| RRIRQRPPRLPRPRPRPGCNPRP | -0.0136 |

| Sequence | shrunken log2 fold change |
| --- | --- |
| RRIRPRPPRLPRPRPRPYWGPRP | -0.201 |
| RRIRKRPPRLPRPRPRPEQIPRP | 0.0375 |
| RRIRPRPPRLPRPRPRPHKYPRP | -0.29 |
| RRIRGRPPRLPRPRPRPLNYPRP | 0.131 |
| RRIRMRPPRLPRPRPRPHYFPRP | -0.0364 |
| RRIRCRPPRLPRPRPRPYHEPRP | -0.329 |
| RRIRERPPRLPRPRPRPPGLPRP | 0.433 |
| RRIRHRPPRLPRPRPRPYWQPRP | -0.0678 |
| RRIRPRPPRLPRPRPRPQQHPRP | -0.0726 |
| RRIRQRPPRLPRPRPRPGWCPRP | 0.0842 |
| RRIRCRPPRLPRPRPRPQDEPRP | -0.0478 |
| RRIRGRPPRLPRPRPRPFLEPRP | 0.625 |
| RRIRQRPPRLPRPRPRPTYMPRP | -0.106 |
| RRIRIRPPRLPRPRPRPEGPPRP | -0.0796 |
| RRIRVRPPRLPRPRPRPQEVPRP | -0.186 |
| RRIRDRPPRLPRPRPRPDKQPRP | -0.129 |
| RRIRFRPPRLPRPRPRPHKQPRP | -0.0759 |
| RRIRMRPPRLPRPRPRPHMGPRP | -0.0941 |
| RRIRGRPPRLPRPRPRPVGVPRP | 1.08 |
| RRIRLRPPRLPRPRPRPFNGPRP | -0.0434 |
| RRIRSRPPRLPRPRPRPVTEPRP | -0.0851 |
| RRIRFRPPRLPRPRPRPKWIPRP | -0.699 |
| RRIRPRPPRLPRPRPRPGPHPRP | 0.134 |
| RRIRERPPRLPRPRPRPDFWPRP | 0.214 |
| RRIRSRPPRLPRPRPRPTALPRP | 0.14 |

| Sequence | shrunken log2 fold change |
| --- | --- |
| RRIRTRPPRLPRPRPRPSGEPRP | 2.88 |
| RRIRQRPPRLPRPRPRPSIEPRP | -0.373 |
| RRIRKRPPRLPRPRPRPRWVPRP | 0.642 |
| RRIRVRPPRLPRPRPRPDGGPRP | -0.0572 |
| RRIRYRPPRLPRPRPRPVFPPRP | -0.0627 |
| RRIRFRPPRLPRPRPRPFDEPRP | -0.983 |
| RRIRYRPPRLPRPRPRPEDRPRP | 0.119 |
| RRIRHRPPRLPRPRPRPKKLPRP | -0.104 |
| RRIRMRPPRLPRPRPRPKCRPRP | 0.0493 |
| RRIRARPPRLPRPRPRPIFDPRP | 0.0844 |
| RRIRGRPPRLPRPRPRPQKNPRP | 0.368 |
| RRIRKRPPRLPRPRPRPQYVPRP | -0.143 |
| RRIRWRPPRLPRPRPRPGNGPRP | -0.0519 |
| RRIRPRPPRLPRPRPRPEWYPRP | 0.203 |
| RRIRWRPPRLPRPRPRPIQFPRP | -0.0539 |
| RRIRSRPPRLPRPRPRPDTIPRP | -1.3 |
| RRIRIRPPRLPRPRPRPYTVPRP | -1.32 |
| RRIRDRPPRLPRPRPRPLKIPRP | -0.297 |
| RRIRSRPPRLPRPRPRPRFMPRP | -0.211 |
| RRIRKRPPRLPRPRPRPNFGPRP | 0.252 |
| RRIRRRPPRLPRPRPRPWTEPRP | 0.116 |
| RRIRLRPPRLPRPRPRPPCSPRP | -0.0182 |
| RRIRFRPPRLPRPRPRPRSGPRP | 0.444 |
| RRIRRRPPRLPRPRPRPVGLPRP | 0.111 |
| RRIRVRPPRLPRPRPRPMKNPRP | -0.104 |

| Sequence | shrunken log2 fold change |
| --- | --- |
| RRIRARPPRLPRPRPRPGRQPRP | 0.706 |
| RRIRGRPPRLPRPRPRPDLYPRP | 0.574 |
| RRIRQRPPRLPRPRPRPKTHPRP | -0.389 |
| RRIRKRPPRLPRPRPRPSHYPRP | -0.248 |
| RRIRHRPPRLPRPRPRPEFNPRP | 0.0664 |
| RRIRIRPPRLPRPRPRPGWNPRP | -0.0913 |
| RRIRMRPPRLPRPRPRPCSCPRP | 0.183 |
| RRIRQRPPRLPRPRPRPMHHPRP | -0.288 |
| RRIRDRPPRLPRPRPRPLEQPRP | 0.57 |
| RRIRGRPPRLPRPRPRPNPSPRP | 0.294 |
| RRIRDRPPRLPRPRPRPSYSPRP | -0.581 |
| RRIRGRPPRLPRPRPRPKMQPRP | 0.292 |
| RRIRRRPPRLPRPRPRPRRCPRP | 0.615 |
| RRIRHRPPRLPRPRPRPPILPRP | -0.0767 |
| RRIRWRPPRLPRPRPRPALKPRP | 0.0103 |
| RRIRCRPPRLPRPRPRPEGGPRP | 0.477 |
| RRIRARPPRLPRPRPRPELWPRP | 1.3 |
| RRIRNRPPRLPRPRPRPEKHPRP | -0.287 |
| RRIRTRPPRLPRPRPRPPTDPRP | 0.0638 |
| RRIRGRPPRLPRPRPRPTMRPRP | 1.44 |
| RRIRNRPPRLPRPRPRPDNFPRP | -0.00141 |
| RRIRNRPPRLPRPRPRPFGAPRP | 0.00377 |
| RRIRSRPPRLPRPRPRPKENPRP | -0.0465 |
| RRIRRRPPRLPRPRPRPMCNPRP | 0.0275 |
| RRIRERPPRLPRPRPRPWFRPRP | -0.214 |

| Sequence | shrunken log2 fold change |
| --- | --- |
| RRIRVRPPRLPRPRPRPPGVPRP | 0.216 |
| RRIRIRPPRLPRPRPRPRQAPRP | 0.0194 |
| RRIRIRPPRLPRPRPRPQSDPRP | -0.212 |
| RRIRDRPPRLPRPRPRPMKMPRP | 0.0275 |
| RRIRIRPPRLPRPRPRPKIWPRP | 0.145 |
| RRIRDRPPRLPRPRPRPTGAPRP | 1.37 |
| RRIRRRPPRLPRPRPRPSWWPRP | 0.327 |
| RRIRARPPRLPRPRPRPPTRPRP | 1.29 |
| RRIRVRPPRLPRPRPRPHPTPRP | 0.23 |
| RRIRARPPRLPRPRPRPAYIPRP | -0.148 |
| RRIRVRPPRLPRPRPRPSSYPRP | -0.139 |
| RRIRVRPPRLPRPRPRPLWNPRP | -0.197 |
| RRIRHRPPRLPRPRPRPGFTPRP | -0.358 |
| RRIRQRPPRLPRPRPRPASIPRP | -0.0578 |
| RRIRKRPPRLPRPRPRPIATPRP | -0.0616 |
| RRIRARPPRLPRPRPRPSRDPRP | 0.199 |
| RRIRMRPPRLPRPRPRPASNPRP | 0.421 |
| RRIRRRPPRLPRPRPRPSMMPRP | -0.216 |
| RRIRPRPPRLPRPRPRPVPHPRP | 0.0546 |
| RRIRRRPPRLPRPRPRPARYPRP | 0.317 |
| RRIRSRPPRLPRPRPRPDLGPRP | 0.0168 |
| RRIRIRPPRLPRPRPRPGCFPRP | -0.0641 |
| RRIRCRPPRLPRPRPRPCINPRP | -0.0741 |
| RRIRMRPPRLPRPRPRPAKLPRP | 0.441 |
| RRIRQRPPRLPRPRPRPNVFPRP | -0.14 |

| Sequence | shrunken log2 fold change |
| --- | --- |
| RRIRKRPPRLPRPRPRPRLCPRP | 0.308 |
| RRIRTRPPRLPRPRPRPHGTPRP | 0.219 |
| RRIRGRPPRLPRPRPRPNDRPRP | 0.288 |
| RRIRWRPPRLPRPRPRPNYAPRP | -0.0925 |
| RRIRLRPPRLPRPRPRPTVGPRP | 0.0924 |
| RRIRVRPPRLPRPRPRPPPIPRP | 0.59 |
| RRIRVRPPRLPRPRPRPVKNPRP | 0.118 |
| RRIRTRPPRLPRPRPRPYALPRP | -0.686 |
| RRIRCRPPRLPRPRPRPCREPRP | -0.291 |
| RRIRIRPPRLPRPRPRPQTQPRP | -0.244 |
| RRIRERPPRLPRPRPRPITRPRP | -0.149 |
| RRIRTRPPRLPRPRPRPKNTPRP | -0.508 |
| RRIRQRPPRLPRPRPRPHLKPRP | -0.0175 |
| RRIRNRPPRLPRPRPRPCGMPRP | -0.45 |
| RRIRVRPPRLPRPRPRPRNQPRP | 0.0453 |
| RRIRFRPPRLPRPRPRPVKYPRP | -0.147 |
| RRIRDRPPRLPRPRPRPNMPPRP | -0.497 |
| RRIRGRPPRLPRPRPRPHPGPRP | 0.421 |
| RRIRWRPPRLPRPRPRPTNWPRP | 0.206 |
| RRIRRRPPRLPRPRPRPEGSPRP | 0.223 |
| RRIRMRPPRLPRPRPRPCCTPRP | -0.229 |
| RRIRVRPPRLPRPRPRPGKHPRP | -0.391 |
| RRIRERPPRLPRPRPRPDFNPRP | -0.175 |
| RRIRLRPPRLPRPRPRPYGMPRP | -0.0242 |
| RRIRSRPPRLPRPRPRPIECPRP | -0.139 |
